The supplement of paper PMC5998384

Experiments:
HeLa Kyoto [1] = assay: solubility in G1/S (NP-40 vs SDS abundance) (log2 ratio); higher = more soluble; settings: cell cycle stage: G1/S
HeLa Kyoto [2] = assay: solubility change mitosis vs G1/S (difference of NP-40 vs SDS log2 ratios) (log2 ratio difference); higher = more soluble in mitosis
HeLa Kyoto [3] = assay: thermal stability score vs G1/S (z-score of summed log2 fold changes over temperatures); higher = more thermally stable than in G1/S
HeLa Kyoto [4] = assay: melting temperature (median over replicates), in situ; higher = more thermally stable
[5] = cell cycle stage: early G1 (4.5 h after nocodazole release)
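Wherever melting temperature (median over replicates), in situ is given: HeLa Kyoto cells synchronized by double thymidine or nocodazole block, proteins quantified by TMT10plex mass spectrometry, three independent biological replicates.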
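Wherever solubility change mitosis vs G1/S (difference of NP-40 vs SDS log2 ratios) is given: synchronized HeLa Kyoto cells (double thymidine block for G1/S, nocodazole release for mitosis), protein amounts in NP-40 versus SDS lysates quantified by mass spectrometry, three biological replicates.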
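Wherever solubility in G1/S (NP-40 vs SDS abundance) is given: HeLa Kyoto cells arrested at G1/S by double thymidine block, proteins quantified by TMT10plex mass spectrometry in mild NP-40 versus SDS extracts, three biological replicates.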
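Wherever thermal stability score vs G1/S (z-score of summed log2 fold changes over temperatures) is given: synchronized HeLa Kyoto cells, proteins quantified by TMT10plex mass spectrometry, three biological replicates, mitosis taken 0.5 h after nocodazole release, G1/S directly after double thymidine block.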

Chain of NLE1 (chain, as listed by the source): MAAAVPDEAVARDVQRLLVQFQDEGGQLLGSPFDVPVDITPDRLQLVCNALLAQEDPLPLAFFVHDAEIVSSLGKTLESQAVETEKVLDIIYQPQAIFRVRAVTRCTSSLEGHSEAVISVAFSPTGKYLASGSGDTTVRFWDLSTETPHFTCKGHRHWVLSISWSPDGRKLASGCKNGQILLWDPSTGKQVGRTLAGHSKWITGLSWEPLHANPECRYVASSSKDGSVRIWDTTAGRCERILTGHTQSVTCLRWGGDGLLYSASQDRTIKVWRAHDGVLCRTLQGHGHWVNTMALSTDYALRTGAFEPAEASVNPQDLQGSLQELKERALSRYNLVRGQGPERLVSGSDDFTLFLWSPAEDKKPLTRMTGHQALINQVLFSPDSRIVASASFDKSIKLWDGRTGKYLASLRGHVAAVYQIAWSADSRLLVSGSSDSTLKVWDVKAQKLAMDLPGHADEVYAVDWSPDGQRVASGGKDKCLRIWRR

Substance | solubility in G1/S (log2) (HeLa Kyoto [1]) | solubility change mitosis (log2) (HeLa Kyoto [2]) | thermal stability score (HeLa Kyoto [3]; [5]) | thermal stability score (HeLa Kyoto [3]; cell cycle stage: mitosis) | melting temperature (HeLa Kyoto [4]; cell cycle stage: G1/S) | melting temperature (HeLa Kyoto [4]; cell cycle stage: mitosis)
MDRTCEERPAEDGSDEEDPDSMEAPTRIRDTPEDIVLEAPASGLAFHPARDLLAAGDVDGDVFVFSYSCQEGETKELWSSGHHLKACRAVAFSEDGQKLITVSKDKAIHVLDVEQGQLERRVSKAHGAPINSLLLVDENVLATGDDTGGICLWDQRKEGPLMDMRQHEEYIADMALDPAKKLLLTASGDGCLGIFNIKRRRFELLSEPQSGDLTSVTLMKWGKKVACGSSEGTIYLFNWNGFGATSDRFALRAESIDCMVPVTESLLCTGSTDGVIRAVNILPNRVVGSVGQHTGEPVEELALSHCGRFLASSGHDQRLKFWDMAQLRAVVVDDYRRRKKKGGPLRALSSKTWSTDDFFAGLREEGEDSMAQEEKEETGDDSD [WDR55] | -0.0916 | -0.0465 | -0.454 | -1.73 | 51.3 °C | 51.4 °C
MRECISVHVGQAGVQMGNACWELYCLEHGIQPDGQMPSDKTIGGGDDSFTTFFCETGAGKHVPRAVFVDLEPTVIDEIRNGPYRQLFHPEQLITGKEDAANNYARGHYTIGKEIIDPVLDRIRKLSDQCTGLQGFLVFHSFGGGTGSGFTSLLMERLSVDYGKKSKLEFSIYPAPQVSTAVVEPYNSILTTHTTLEHSDCAFMVDNEAIYDICRRNLDIERPTYTNLNRLISQIVSSITASLRFDGALNVDLTEFQTNLVPYPRIHFPLATYAPVISAEKAYHEQLSVAEITNACFEPANQMVKCDPRHGKYMACCLLYRGDVVPKDVNAAIAAIKTKRSIQFVDWCPTGFKVGINYQPPTVVPGGDLAKVQRAVCMLSNTTAIAEAWARLDHKFDLMYAKRAFVHWYVGEGMEEGEFSEAREDMAALEKDYEEVGIDSYEDEDEGEE [TUBA4A] | 0.111 | -0.138 | -0.775 | -2.94 | 55.6 °C | 54.2 °C
DIDO1 | -0.458 | 0.231 | 0.743 | 4.5 | 49.1 °C | 49.8 °C
MGSRDHLFKVLVVGDAAVGKTSLVQRYSQDSFSKHYKSTVGVDFALKVLQWSDYEIVRLQLWDIAGQERFTSMTRLYYRDASACVIMFDVTNATTFSNSQRWKQDLDSKLTLPNGEPVPCLLLANKCDLSPWAVSRDQIDRFSKENGFTGWTETSVKENKNINEAMRVLIEKMMRNSTEDIMSLSTQGDYINLQTKSSSWSCC [RAB29] | 0.0397 | -0.119 | -0.342 | -0.372 | 53 °C | 52.9 °C
MFRYESLEDCPLDEDEDAFQGLGEEDEEIDQFNDDTFGSGAVDDDWQEAHERLAELEEKLPVAVNEQTGNGERDEMDLLGDHEENLAERLSKMVIENELEDPAIMRAVQTRPVLQPQPGSLNSSIWDGSEVLRRIRGPLLAQEMPTVSVLEYALPQRPPQGPEDDRDLSERALPRRSTSPIIGSPPVRAVPIGTPPKQMAVPSFTQQILCPKPVHVRPPMPPRYPAPYGERMSPNQLCSVPNSSLLGHPFPPSVPPVLSPLQRAQLLGGAQLQPGRMSPSQFARVPGFVGSPLAAMNPKLLQGRVGQMLPPAPGFRAFFSAPPSATPPPQQHPPGPGPHLQNLRSQAPMFRPDTTHLHPQHRRLLHQRQQQNRSQHRNLNGAGDRGSHRSSHQDHLRKDPYANLMLQREKDWVSKIQMMQLQSTDPYLDDFYYQNYFEKLEKLSAAEEIQGDGPKKERTKLITPQVAKLEHAYKPVQFEGSLGKLTVSSVNNPRKMIDAVVTSRSEDDETKEKQVRDKRRKTLVIIEKTYSLLLDVEDYERRYLLSLEEERPALMDDRKHKICSMYDNLRGKLPGQERPSDDHFVQIMCIRKGKRMVARILPFLSTEQAADILMTTARNLPFLIKKDAQDEVLPCLLSPFSLLLYHLPSVSITSLLRQLMNLPQSAATPALSNPHLTAVLQNKFGLSLLLILLSRGEDLQSSDPATESTQNNQWTEVMFMATRELLRIPQAALAKPISIPTNLVSLFSRYVDRQKLNLLETKLQLVQGIR [PATL1] | 0.255 | -0.0674 | -0.863 | 0.327 | 49.2 °C | 48.5 °C
MASPGCLWLLAVALLPWTCASRALQHLDPPAPLPLVIWHGMGDSCCNPLSMGAIKKMVEKKIPGIYVLSLEIGKTLMEDVENSFFLNVNSQVTTVCQALAKDPKLQQGYNAMGFSQGGQFLRAVAQRCPSPPMINLISVGGQHQGVFGLPRCPGESSHICDFIRKTLNAGAYSKVVQERLVQAEYWHDPIKEDVYRNHSIFLADINQERGINESYKKNLMALKKFVMVKFLNDSIVDPVDSEWFGFYRSGQAKETIPLQETSLYTQDRLGLKEMDNAGQLVFLATEGDHLQLSEEWFYAHIIPFLG [PPT1] | 0.426 | -0.105 | 0.0933 | -1.67 | 55.1 °C | 55.2 °C
MNTADQARVGPADDGPAPSGEEEGEGGGEAGGKEPAADAAPGPSAAFRLMVTRREPAVKLQYAVSGLEPLAWSEDHRVSVSTARSIAVLELICDVHNPGQDLVIHRTSVPAPLNSCLLKVGSKTEVAECKEKFAASKDPTVSQTFMLDRVFNPEGKALPPMRGFKYTSWSPMGCDANGRCLLAALTMDNRLTIQANLNRLQWVQLVDLTEIYGERLYETSYRLSKNEAPEGNLGDFAEFQRRHSMQTPVRMEWSGICTTQQVKHNNECRDVGSVLLAVLFENGNIAVWQFQLPFVGKESISSCNTIESGITSPSVLFWWEYEHNNRKMSGLIVGSAFGPIKILPVNLKAVKGYFTLRQPVILWKEMDQLPVHSIKCVPLYHPYQKCSCSLVVAARGSYVFWCLLLISKAGLNVHNSHVTGLHSLPIVSMTADKQNGTVYTCSSDGKVRQLIPIFTDVALKFEHQLIKLSDVFGSVRTHGIAVSPCGAYLAIITTEGMINGLHPVNKNYQVQFVTLKTFEEAAAQLLESSVQNLFKQVDLIDLVRWKILKDKHIPQFLQEALEKKIESSGVTYFWRFKLFLLRILYQSMQKTPSEALWKPTHEDSKILLVDSPGMGNADDEQQEEGTSSKQVVKQGLQERSKEGDVEEPTDDSLPTTGDAGGREPMEEKLLEIQGKIEAVEMHLTREHMKRVLGEVYLHTWITENTSIPTRGLCNFLMSDEEYDDRTARVLIGHISKKMNKQTFPEHCSLCKEILPFTDRKQAVCSNGHIWLRCFLTYQSCQSLIYRRCLLHDSIARHPAPEDPDWIKRLLQSPCPFCDSPVF [GTF3C4] | -0.0178 | -0.0904 | 1.42 | 3.08 | 49.4 °C | 49.9 °C
MKRRLDDQESPVYAAQQRRIPGSTEAFPHQHRVLAPAPPVYEAVSETMQSATGIQYSVTPSYQVSAMPQSSGSHGPAIAAVHSSHHHPTAVQPHGGQVVQSHAHPAPPVAPVQGQQQFQRLKVEDALSYLDQVKLQFGSQPQVYNDFLDIMKEFKSQSIDTPGVISRVSQLFKGHPDLIMGFNTFLPPGYKIEVQTNDMVNVTTPGQVHQIPTHGIQPQPQPPPQHPSQPSAQSAPAPAQPAPQPPPAKVSKPSQLQAHTPASQQTPPLPPYASPRSPPVQPHTPVTISLGTAPSLQNNQPVEFNHAINYVNKIKNRFQGQPDIYKAFLEILHTYQKEQRNAKEAGGNYTPALTEQEVYAQVARLFKNQEDLLSEFGQFLPDANSSVLLSKTTAEKVDSVRNDHGGTVKKPQLNNKPQRPSQNGCQIRRHPTGTTPPVKKKPKLLNLKDSSMADASKHGGGTESLFFDKVRKALRSAEAYENFLRCLVIFNQEVISRAELVQLVSPFLGKFPELFNWFKNFLGYKESVHLETYPKERATEGIAMEIDYASCKRLGSSYRALPKSYQQPKCTGRTPLCKEVLNDTWVSFPSWSEDSTFVSSKKTQYEEHIYRCEDERFELDVVLETNLATIRVLEAIQKKLSRLSAEEQAKFRLDNTLGGTSEVIHRKALQRIYADKAADIIDGLRKNPSIAVPIVLKRLKMKEEEWREAQRGFNKVWREQNEKYYLKSLDHQGINFKQNDTKVLRSKSLLNEIESIYDERQEQATEENAGVPVGPHLSLAYEDKQILEDAAALIIHHVKRQTGIQKEDKYKIKQIMHHFIPDLLFAQRGDLSDVEEEEEEEMDVDEATGAVKKHNGVGGSPPKSKLLFSNTAAQKLRGMDEVYNLFYVNNNWYIFMRLHQILCLRLLRICSQAERQIEEENREREWEREVLGIKRDKSDSPAIQLRLKEPMDVDVEDYYPAFLDMVRSLLDGNIDSSQYEDSLREMFTIHAYIAFTMDKLIQSIVRQLQHIVSDEICVQVTDLYLAENNNGATGGQLNTQNSRSLLESTYQRKAEQLMSDENCFKLMFIQSQGQVQLTIELLDTEEENSDDPVEAERWSDYVERYMNSDTTSPELREHLAQKPVFLPRNLRRIRKCQRGREQQEKEGKEGNSKKTMENVDSLDKLECRFKLNSYKMVYVIKSEDYMYRRTALLRAHQSHERVSKRLHQRFQAWVDKWTKEHVPREMAAETSKWLMGEGLEGLVPCTTTCDTETLHFVSINKYRVKYGTVFKAP [SIN3A] | -0.136 | -0.073 | 1.76 | 4.27 | 48.4 °C | 49.5 °C
MSAPSEEEEYARLVMEAQPEWLRAEVKRLSHELAETTREKIQAAEYGLAVLEEKHQLKLQFEELEVDYEAIRSEMEQLKEAFGQAHTNHKKVAADGESREESLIQESASKEQYYVRKVLELQTELKQLRNVLTNTQSENERLASVAQELKEINQNVEIQRGRLRDDIKEYKFREARLLQDYSELEEENISLQKQVSVLRQNQVEFEGLKHEIKRLEEETEYLNSQLEDAIRLKEISERQLEEALETLKTEREQKNSLRKELSHYMSINDSFYTSHLHVSLDGLKFSDDAAEPNNDAEALVNGFEHGGLAKLPLDNKTSTPKKEGLAPPSPSLVSDLLSELNISEIQKLKQQLMQMEREKAGLLATLQDTQKQLEHTRGSLSEQQEKVTRLTENLSALRRLQASKERQTALDNEKDRDSHEDGDYYEVDINGPEILACKYHVAVAEAGELREQLKALRSTHEAREAQHAEEKGRYEAEGQALTEKVSLLEKASRQDRELLARLEKELKKVSDVAGETQGSLSVAQDELVTFSEELANLYHHVCMCNNETPNRVMLDYYREGQGGAGRTSPGGRTSPEARGRRSPILLPKGLLAPEAGRADGGTGDSSPSPGSSLPSPLSDPRREPMNIYNLIAIIRDQIKHLQAAVDRTTELSRQRIASQELGPAVDKDKEALMEEILKLKSLLSTKREQITTLRTVLKANKQTAEVALANLKSKYENEKAMVTETMMKLRNELKALKEDAATFSSLRAMFATRCDEYITQLDEMQRQLAAAEDEKKTLNSLLRMAIQQKLALTQRLELLELDHEQTRRGRAKAAPKTKPATPSL [BICD2] | 0.628 | 0.0849 | -0.115 | 0.199 | 49.7 °C | 49.1 °C
NLE1 | -0.35 | 0.0775 | -1.88 | -4.55 | 53 °C | 54.2 °C
MPLELELCPGRWVGGQHPCFIIAEIGQNHQGDLDVAKRMIRMAKECGADCAKFQKSELEFKFNRKALERPYTSKHSWGKTYGEHKRHLEFSHDQYRELQRYAEEVGIFFTASGMDEMAVEFLHELNVPFFKVGSGDTNNFPYLEKTAKKGRPMVISSGMQSMDTMKQVYQIVKPLNPNFCFLQCTSAYPLQPEDVNLRVISEYQKLFPDIPIGYSGHETGIAISVAAVALGAKVLERHITLDKTWKGSDHSASLEPGELAELVRSVRLVERALGSPTKQLLPCEMACNEKLGKSVVAKVKIPEGTILTMDMLTVKVGEPKGYPPEDIFNLVGKKVLVTVEEDDTIMEELVDNHGKKIKS [NANS] | 0.172 | -0.108 | -1.59 | -2.55 | 53 °C | 52.3 °C
MAAVAALQLGLRAAGLGRAPASAAWRSVLRVSPRPGVAWRPSRCGSSAAEASATKAEDDSFLQWVLLLIPVTAFGLGTWQVQRRKWKLNLIAELESRVLAEPVPLPADPMELKNLEYRPVKVRGCFDHSKELYMMPRTMVDPVREAREGGLISSSTQSGAYVVTPFHCTDLGVTILVNRGFVPRKKVNPETRQKGQIEGEVDLIGMVRLTETRQPFVPENNPERNHWHYRDLEAMARITGAEPIFIDANFQSTVPGGPIGGQTRVTLRNEHLQYIVTWYGLSAATSYLWFKKFLRGTPGV [SURF1] | 0.298 | -0.105 | -0.638 | -0.542 | 52.2 °C | 52.2 °C
